Measurements as given in patent US20140234903.

B1: PoyF (LanM, N-terminal dehydratase domain) (protein)
chain: MMSSSSSREGDALAHAADPTRSIADDITCGLDSLGGPPTVCDAEHPVPFEELWLGFVAHAARALEPLIAPSLHAAVLHDPHGPLRSLLIELAEMGAPAAFELFALYRIREASAASVFGSVRGVESRDTYNAFVKHLATQQLSPLWDAFPALKPLLATRTNLFIAAMAELCQRWEADHVEIMSVFPELRGIGAPQRIRPGLSDAHGGGRTVTRLSFAGGEALFYKPRPVDMEWGCAQFVEWFNGQDHGMPPLRALSVLPRTDYGWMEAARPALCTHVDAVARFYHRAGMLLALADLFCGVDFHSENLIASGEYPVIVDLETLFHPLGPFESQGDALERTELLPRPIYCEDGAPYVICGLGVVPGKAVIELRRRGWININCDNMASCDVTVPWPVGGAVPRNKEGAAPSIATWSGEIVSGFSAMHVFFRTRRNELWSADGPIVQAFGGGRSRFLLRATRIYVELLRRAVQPQALAAHASSSHIFDRLARTGRGWDEIHRVERQALDRMDVPYFTMETTAQFVRGEGRTIHAFFATSGLHMARRRSEFIDDVILNDRAASIRNVLEQSSYSGEATLPDSRVQTDAGAGA
B2: PoyE (SAM-dependent methyltransferase (nucleophilic)) (protein)
chain: MTPRSLPTEPLAAPAAAALDAALRLLKEYLDDIGYHGIYKYLATANYYAASPSVFNASRPQSLEAFDRQIHEGPDDWMLARCLTTCAPCRLEALPPPARRVAEVLADVGLLVWNGNTLEQGGYQLISVFDRYILLDARIHFGGSQLHDVYIGPDSHLLLYYMPVEAIRPADHILDLCTGTGVIGLGLSRFSEHVVSTDIAPPALRLAHMNRALNNAEGRVSIRAENLQETLASDECFDLIACNPPYVAAPPELPTPLYAQGPDRDGLGYLRLLMERAPEKLNPGGQAMFVVDLIGDTHRPYYFDDLERIAKEQELFIEAFIDNRLKADGQLPAYKFLYARLFHGTPPEEIEQRMRNFIFDELHAYYYYMTTLRVRRRKPSGLRVLDRYRITSYDEFFQQS

What was measured:
[1] = target: T1, N-terminally His6-tagged PoyA (polytheonamide precursor peptide)
T1 chain: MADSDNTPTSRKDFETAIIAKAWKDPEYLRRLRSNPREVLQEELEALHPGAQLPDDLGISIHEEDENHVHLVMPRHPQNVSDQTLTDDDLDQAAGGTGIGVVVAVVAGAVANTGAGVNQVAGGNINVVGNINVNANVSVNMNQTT

[2] = target: T2, Nhis-PoyA121 (truncated variant of PoyA, residues 1-121, with the first 24 core amino acids)
T2 chain: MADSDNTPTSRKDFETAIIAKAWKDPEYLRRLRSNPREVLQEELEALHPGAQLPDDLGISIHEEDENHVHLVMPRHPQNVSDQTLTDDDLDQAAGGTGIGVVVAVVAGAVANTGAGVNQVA

| Protein | mass shift of PoyA (ESI-MS) on co-expression; modified residue by LC/MS/MS [1] | methylation of the C-terminal tryptic peptide 76-121 (LC-ESI/ECD-MS/MS) [2] | number of methylations on PoyA (MS, +14 mass units each) [1] |
| --- | --- | --- | --- |
| B1 | produced PoyA with a mass 18 Da less than expected (observed 17090 Da, calculated 17108 Da |  |  |
| B2 |  | Near quantitative monomethylation was observed in this sample, with no evidence of multiple methylation. ECD fragmentation located the site of methylation exclusively to Asn112 (in full-length PoyA numbering) | a suite of peptides increasing by 14 mass units (0 to 8 modifications) |
